Here are results for 1 molecule from patent publication US9980982B2, “HE4 based therapy for malignant disease” (Women & Infants Hospital of Rhode Island, priority 2011, dated 2018).

“Also recorded” adds a separate entry of the source.

For one experiment, the system named is SKOV-3 cells. Put plainly: MTS cell viability assay, parental/wild-type SKOV-3 cells. It counts as cell-based, Human. The conditions noted are these: for effect of recombinant HE4 on cisplatin efficacy in SKOV-3 cells: combination or pre-treatment with HE4 (4 ng/mL in FIG. 10B) plus cisplatin. The procedure: Cell growth and viability of cell lines (complete medium, 24 h incubation) was determined by the CellTiter 96® AQueous One Solution Assay (Promega Corp, Madison, Wis.) following the manufacturer's recommendations with modifications (Lange T S et al., 2008 PLOS One, 3(5):e2303). Experiments are expressed as the mean of triplicate determinations (X±SD) of a representative experiment in OD (cell growth) or % of absorbance by drug-treated versus untreated cells [=100%] (cell viability). Cisplatin (CDDP), paclitaxel, doxorubicin and camptothecin (CPT) were purchased from (Sigma Aldrich, St. Louis, Mo.).
To analyze the potential biological relevance of elevated HE4 production for ovarian cancer cells the efficacy of commonly used anticancer drugs was examined in a viability assay (FIG. 5). SKOV-3 clones or parental cells were treated with cisplatin, paclitaxel, doxorubicin, or camptothecin for 24 h in various concentrations as indicated and the cytotoxicity evaluated.
(In general: Tetrazolium assays rely on reduction of a dye to a coloured formazan, in cell work by metabolically active cells.)

A further experiment has as its system CaOV-3. Put plainly: Cell viability, exogenous recombinant HE4, CaOV-3. It counts as cell-based, Human.

Broadly, the IC50 is the concentration needed to halve the response being measured.

B1: recombinant HE4: exogenous recombinant human epididymal secretory protein E4 (protein)
chain: EKTGVCPELQADQNCTQECVSDSECADNLKCCSAGCATFCSLPNDKEGSCPQVNINFPQLGLCRDQCQVDSQCPGQMKCCRNGCGKVSCVTPNF
As for B1, the “effect of recombinant HE4 on cisplatin efficacy in SKOV-3 cells” value was “enhanced the efficacy of cisplatin; also recorded: synergized or enhanced suppression of cell-viability” in the experiment on SKOV-3 cells and “enhanced the efficacy of cisplatin” in the experiment on SKOV-3 cells (listed as HE4). Besides, the “effect on viability of SKOV-3 cells” value in the experiment on SKOV-3 cells (exogenous recombinant HE4) is listed as “suppressed the viability of SKOV-3 cells”. Moreover, the IC50 in the experiment on SKOV-3 cells (proliferating ovarian cancer cells (SKOV-3), read-out: IC50, reduction of cell viability) lay within 1 to 8 µM. For the same molecule, the “effect on viability of CaOV-3” value with CaOV-3 is given as “suppressed the viability”.
